Reference: doi:10.1101/2023.12.24.573241

Assays:
[1] = molecular target: Taxol-stabilized microtubules polymerized from pig brain tubulin, labeled with biotin and AZDye647 (pig) (UniProt P02550); test: TIRF single-molecule motility assay
[2] = molecular target: DmUNC-104^bris (full-length DmUNC-104 R562H, C-terminal sfGFP and 2xStrep-tag II) (Drosophila melanogaster) (UniProt A1ZAJ2); test: mass photometry

Chain of UniProt P02550 (P02550 whole entry): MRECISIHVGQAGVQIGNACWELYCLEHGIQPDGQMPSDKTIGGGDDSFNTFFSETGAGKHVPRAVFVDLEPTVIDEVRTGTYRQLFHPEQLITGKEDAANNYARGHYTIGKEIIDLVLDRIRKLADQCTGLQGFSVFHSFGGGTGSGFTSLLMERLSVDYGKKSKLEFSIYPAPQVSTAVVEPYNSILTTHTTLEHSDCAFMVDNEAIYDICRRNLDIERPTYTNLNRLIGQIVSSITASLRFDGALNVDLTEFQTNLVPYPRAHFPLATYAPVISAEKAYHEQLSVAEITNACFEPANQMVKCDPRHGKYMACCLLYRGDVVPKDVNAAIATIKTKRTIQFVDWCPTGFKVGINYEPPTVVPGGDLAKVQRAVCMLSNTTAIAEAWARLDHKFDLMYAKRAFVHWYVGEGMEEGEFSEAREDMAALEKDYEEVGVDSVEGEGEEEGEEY

landing rate (median) (molecules/µm/s) [1]: 0.034
landing rate of motile motors (median) (molecules/µm/s) [1]: 0.015
percent of particles as dimer [2]: 71%
stoichiometry N [2]: 2
Substance: DmUNC-104^bris (full-length DmUNC-104 R562H, C-terminal sfGFP and 2xStrep-tag II) (from UniProt A1ZAJ2 1-1670) (natural protein)
